Experimental findings from patent US20250177453A1 (Harvard, published 2025) are described below.

The target in this assay is T1, human PD-L1 expressed on the surface of SC-islet cells (human, UniProt Q9NZQ7 19-290).
T1 construct: whole, on cells; also called PD-L1 on B2P SC-islet cells
The assay is described as follows: flow cytometry, labelled PD-1-Fc on dissociated SC-islet cells. In general terms: A flow cytometer gives signals particle by particle.

T1 sequence (Q9NZQ7 19-290): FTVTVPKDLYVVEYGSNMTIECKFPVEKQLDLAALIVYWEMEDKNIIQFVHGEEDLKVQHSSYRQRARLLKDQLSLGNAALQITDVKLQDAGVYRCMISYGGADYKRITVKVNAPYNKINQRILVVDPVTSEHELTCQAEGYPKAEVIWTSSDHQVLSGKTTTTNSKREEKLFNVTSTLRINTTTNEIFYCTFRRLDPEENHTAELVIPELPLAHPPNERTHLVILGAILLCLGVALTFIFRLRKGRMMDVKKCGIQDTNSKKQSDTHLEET

B1: PE-conjugated mouse PD1-Fc (Fc fusion, UniProt Q02242 25-167, looked up)
chain: LEVPNGPWRSLTFYPAWLTVSEGANATFTCSLSNWSEDLMLNWNRLSPSNQTEKQAAFCNGLSQPVQDARFQIIQLPNRHDFHMNILDTRRNDSGIYLCGAISLHPKAKIEESPGAELVVTERILETSTRYPSPSPKPEGRFQ
modifications: PE-conjugated (fluorescently labelled)
notes: It says only 'fluorescently labelled, soluble' PD-1-Fc; also called soluble mouse PD-1-Fc; soluble mouse PD-1; not shown: Fc part
In the case of B1, the binding result is given as “binds”.
